The values that follow come from publication PMC5760450, “FzlA, an essential regulator of FtsZ filament curvature, controls constriction rate during Caulobacter division” (Molecular Microbiology, 2017).

Like-named read-outs stand apart in the source and are kept apart here.

Test [1] concerns the target T1, FtsZ (purified, C. crescentus) (Caulobacter crescentus, UniProt B8H080 1-508).
T1 sequence (looked up): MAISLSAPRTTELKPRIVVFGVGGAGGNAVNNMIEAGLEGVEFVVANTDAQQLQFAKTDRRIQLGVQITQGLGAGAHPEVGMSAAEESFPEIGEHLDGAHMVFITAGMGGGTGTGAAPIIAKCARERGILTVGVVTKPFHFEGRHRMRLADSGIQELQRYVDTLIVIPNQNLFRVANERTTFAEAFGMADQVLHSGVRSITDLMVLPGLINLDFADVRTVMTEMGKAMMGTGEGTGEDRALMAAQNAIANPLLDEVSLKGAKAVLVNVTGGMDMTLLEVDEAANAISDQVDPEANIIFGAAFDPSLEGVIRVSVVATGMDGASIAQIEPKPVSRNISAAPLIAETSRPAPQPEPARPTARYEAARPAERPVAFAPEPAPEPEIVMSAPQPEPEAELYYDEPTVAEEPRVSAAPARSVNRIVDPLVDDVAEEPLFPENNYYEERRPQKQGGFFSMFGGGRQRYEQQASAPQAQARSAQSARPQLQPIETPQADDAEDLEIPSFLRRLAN

Test [2] addresses T1, FtsZ (purified, C. crescentus). In words: co-sedimentation; low speed co-pelleting (higher order structures): 4 µM FzlA variant ± 2 µM FtsZ, 50 mM MES pH 6.5, 50 mM KCl, 2.5 mM MgCl2, 2 mM GTP, 16 000 x g 15 min room temperature. The note with it: both partners purified.
Test [3] shares this target. In words: co-sedimentation; high speed co-pelleting: 4 µM FzlA variant ± 2 µM FtsZ, 50 mM MES pH 6.5, 50 mM KCl, 10 mM MgCl2, 2 mM GTP, 0.05% Triton X-100, 15 min room temperature, 280 000 x g 15 min 25°C; Coomassie gel quantified. The note with it: both partners purified.
For test [4] the target is unchanged. In words: cell-based or functional assay.

“FzlA^WB1 (D109R E122K) (from UniProt A0A0H3CDY2 1-228) (natural protein)” had a % of FtsZ GTPase rate in test [1] of 85.5%.

B1: untagged WT FzlA (natural protein, Caulobacter crescentus)
chain: MSVERTLHHFPLDPASRQVRLALGEKRLPFVEMQVRYWEMPPEFTSLNPSGMPPVLVETKHQRNLVICETRAILEHIEETETEPPLLGRDPAERAEARRLLQWFDRKFDNEVNGFLLHEKMEKRLLRMGAPDLAALRQGREALRMHLGYIESLLQTRDWLAGRRMSLADFAAAAHLSVIDYFGDVPWKDFQAAKTWYMKLKSRPCFRPILADRWPGLAPAAHYDDLDF
notes: FzlA, Caulobacter crescentus; source: E. coli Rosetta (DE3) pLysS, purified (HisTrap, His6-SUMO cleaved with His6-ULP, second HisTrap flow through)
For the molecule B1, the “fold change of FzlA in pellet (with FtsZ vs. alone), low speed” value (shortened to “fold change of FzlA in pellet … low speed”) in test [2] turned out to be 11.1 fold. Also, the “fold change of FzlA in pellet (with FtsZ vs. alone), high speed” value (shortened to “fold change of FzlA in pellet … high speed”) in test [3] was determined as 20.4 fold.

B2: FzlA^NB2 (E119K) (natural protein, Caulobacter crescentus)
chain: MSVERTLHHFPLDPASRQVRLALGEKRLPFVEMQVRYWEMPPEFTSLNPSGMPPVLVETKHQRNLVICETRAILEHIEETETEPPLLGRDPAERAEARRLLQWFDRKFDNEVNGFLLHKKMEKRLLRMGAPDLAALRQGREALRMHLGYIESLLQTRDWLAGRRMSLADFAAAAHLSVIDYFGDVPWKDFQAAKTWYMKLKSRPCFRPILADRWPGLAPAAHYDDLDF
notes: FzlA, Caulobacter crescentus, with E119K; source: E. coli Rosetta (DE3) pLysS, purified (HisTrap, His6-SUMO cleaved)
For the molecule B2, in test [2], the “fold change of FzlA in pellet … low speed” value turned out to be 1.18 fold. In addition, the “% of FtsZ GTPase rate” value in test [4] amounted to 98.9%. The “fold change of FzlA in pellet … high speed” value in test [3] was found to be 1.24 fold.

B3: FzlA^NB1 (W38A R124D) (natural protein, Caulobacter crescentus)
chain: MSVERTLHHFPLDPASRQVRLALGEKRLPFVEMQVRYAEMPPEFTSLNPSGMPPVLVETKHQRNLVICETRAILEHIEETETEPPLLGRDPAERAEARRLLQWFDRKFDNEVNGFLLHEKMEKDLLRMGAPDLAALRQGREALRMHLGYIESLLQTRDWLAGRRMSLADFAAAAHLSVIDYFGDVPWKDFQAAKTWYMKLKSRPCFRPILADRWPGLAPAAHYDDLDF
notes: FzlA, Caulobacter crescentus, with W38A R124D; Self-aggregates under the standard conditions (pH 6.5, 2:1 FzlA:FtsZ); source: E. coli Rosetta (DE3) pLysS, purified (HisTrap, His6-SUMO cleaved)
For the molecule B3, in test [2], the “fold change of FzlA in pellet … low speed” value was determined as 1.25 fold. Besides, in test [4], the “% of FtsZ GTPase rate” value was found to be 96.3%. Moreover, the “fold change of FzlA in pellet … high speed” value in test [3] was found to be 0.91 fold.

B4: FzlA^NH2 (R140D E141K) (natural protein, Caulobacter crescentus)
chain: MSVERTLHHFPLDPASRQVRLALGEKRLPFVEMQVRYWEMPPEFTSLNPSGMPPVLVETKHQRNLVICETRAILEHIEETETEPPLLGRDPAERAEARRLLQWFDRKFDNEVNGFLLHEKMEKRLLRMGAPDLAALRQGDKALRMHLGYIESLLQTRDWLAGRRMSLADFAAAAHLSVIDYFGDVPWKDFQAAKTWYMKLKSRPCFRPILADRWPGLAPAAHYDDLDF
notes: FzlA, Caulobacter crescentus, with R140D E141K; also called no helices; source: E. coli Rosetta (DE3) pLysS, purified (HisTrap, His6-SUMO cleaved)
Consider B4, for which the “% of FtsZ GTPase rate” value in test [4] stood at 85%. The “fold change of FzlA in pellet … high speed” value in test [3] worked out at 7.21 fold.

B5: FzlA^UN1 (P131A) (natural protein, Caulobacter crescentus)
chain: MSVERTLHHFPLDPASRQVRLALGEKRLPFVEMQVRYWEMPPEFTSLNPSGMPPVLVETKHQRNLVICETRAILEHIEETETEPPLLGRDPAERAEARRLLQWFDRKFDNEVNGFLLHEKMEKRLLRMGAADLAALRQGREALRMHLGYIESLLQTRDWLAGRRMSLADFAAAAHLSVIDYFGDVPWKDFQAAKTWYMKLKSRPCFRPILADRWPGLAPAAHYDDLDF
notes: FzlA, Caulobacter crescentus, with P131A; also called unknown nonessential activity; source: E. coli Rosetta (DE3) pLysS, purified (HisTrap, His6-SUMO cleaved)
As to B5, in test [2], the “fold change of FzlA in pellet … low speed” value amounted to 9.86 fold. Also, the “% of FtsZ GTPase rate” value in test [4] was 55.7%. In addition, in test [3], the “fold change of FzlA in pellet … high speed” value is 9.85 fold.

B6: FzlA^UE1 (Y223A D227K F228A) (natural protein, Caulobacter crescentus)
chain: MSVERTLHHFPLDPASRQVRLALGEKRLPFVEMQVRYWEMPPEFTSLNPSGMPPVLVETKHQRNLVICETRAILEHIEETETEPPLLGRDPAERAEARRLLQWFDRKFDNEVNGFLLHEKMEKRLLRMGAPDLAALRQGREALRMHLGYIESLLQTRDWLAGRRMSLADFAAAAHLSVIDYFGDVPWKDFQAAKTWYMKLKSRPCFRPILADRWPGLAPAAHADDLKA
notes: FzlA, Caulobacter crescentus, with Y223A D227K F228A; also called unknown essential activity; source: E. coli Rosetta (DE3) pLysS, purified (HisTrap, His6-SUMO cleaved)
Regarding B6, the “fold change of FzlA in pellet … low speed” value in test [2] is 6.1 fold. Moreover, the “% of FtsZ GTPase rate” value in test [4] was 77.3%. The “fold change of FzlA in pellet … high speed” value in test [3] turned out to be 5.85 fold.

B7: FzlA^UE2 (D227K) (natural protein, Caulobacter crescentus)
chain: MSVERTLHHFPLDPASRQVRLALGEKRLPFVEMQVRYWEMPPEFTSLNPSGMPPVLVETKHQRNLVICETRAILEHIEETETEPPLLGRDPAERAEARRLLQWFDRKFDNEVNGFLLHEKMEKRLLRMGAPDLAALRQGREALRMHLGYIESLLQTRDWLAGRRMSLADFAAAAHLSVIDYFGDVPWKDFQAAKTWYMKLKSRPCFRPILADRWPGLAPAAHYDDLKF
notes: FzlA, Caulobacter crescentus, with D227K; also called unknown essential activity; source: E. coli Rosetta (DE3) pLysS, purified (HisTrap, His6-SUMO cleaved)
Consider B7, for which the “fold change of FzlA in pellet … low speed” value in test [2] is 12.3 fold. The “% of FtsZ GTPase rate” value in test [4] was 42.6%. In test [3], the “fold change of FzlA in pellet … high speed” value worked out at 59 fold.

B8: FzlA^NH3 (R144D) (natural protein, Caulobacter crescentus)
chain: MSVERTLHHFPLDPASRQVRLALGEKRLPFVEMQVRYWEMPPEFTSLNPSGMPPVLVETKHQRNLVICETRAILEHIEETETEPPLLGRDPAERAEARRLLQWFDRKFDNEVNGFLLHEKMEKRLLRMGAPDLAALRQGREALDMHLGYIESLLQTRDWLAGRRMSLADFAAAAHLSVIDYFGDVPWKDFQAAKTWYMKLKSRPCFRPILADRWPGLAPAAHYDDLDF
notes: FzlA, Caulobacter crescentus, with R144D; also called no helices; source: E. coli Rosetta (DE3) pLysS, purified (HisTrap, His6-SUMO cleaved)
Turning to B8, the “% of FtsZ GTPase rate” value in test [4] worked out at 89%. In addition, the “fold change of FzlA in pellet … high speed” value in test [3] turned out to be 3.51 fold.

B9: FzlA^NH1 (P131A L136A R137E) (natural protein, Caulobacter crescentus)
chain: MSVERTLHHFPLDPASRQVRLALGEKRLPFVEMQVRYWEMPPEFTSLNPSGMPPVLVETKHQRNLVICETRAILEHIEETETEPPLLGRDPAERAEARRLLQWFDRKFDNEVNGFLLHEKMEKRLLRMGAADLAAAEQGREALRMHLGYIESLLQTRDWLAGRRMSLADFAAAAHLSVIDYFGDVPWKDFQAAKTWYMKLKSRPCFRPILADRWPGLAPAAHYDDLDF
notes: FzlA, Caulobacter crescentus, with P131A L136A R137E; also called no helices; source: E. coli Rosetta (DE3) pLysS, purified (HisTrap, His6-SUMO cleaved)
With B9, in test [4], the “% of FtsZ GTPase rate” value worked out at 86.2%. Further, the “fold change of FzlA in pellet … high speed” value in test [3] amounted to 2.34 fold.
